The results in this text go back to US20150355179.

In series [1] the test system is GST-CDKACTH1 labelled with Cy3 (CDKACTH1-Cy3).
For series [2], the system named is CDKACT-WWH1 biosensor labelled with Cy3.
Series [3] relates to CDKACT-WWH1 biosensor labelled with Cy5.
Sequence of CDKACT-WWH1 biosensor labelled with Cy5 (chain, as listed by the source): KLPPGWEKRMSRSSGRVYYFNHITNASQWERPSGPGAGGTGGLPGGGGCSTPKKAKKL

Sequence of unlabelled GST-CDKACTH1 (chain, as listed by the source): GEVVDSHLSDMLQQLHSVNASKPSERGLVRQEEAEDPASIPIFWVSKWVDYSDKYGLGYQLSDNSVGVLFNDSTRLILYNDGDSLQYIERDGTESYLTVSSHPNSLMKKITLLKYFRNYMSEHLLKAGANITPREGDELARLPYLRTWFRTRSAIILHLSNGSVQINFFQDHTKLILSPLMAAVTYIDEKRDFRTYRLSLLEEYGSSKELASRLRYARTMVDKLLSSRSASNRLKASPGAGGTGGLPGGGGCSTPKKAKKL

Take “recombinant CDK1/Cyclin B (GST-CDK1/CIV Cyclin B)”: in series [1], the “real-time fluorescence kinase assay (Cy3 fluorescence)” value is reported as “CDK1/Cyclin B indeed phosphorylated CDKACTH1, however in the same conditions as CDK2/Cyclin A it did not induce the same response”. The “radioactive kinase assay (phosphorylation, 30 min at 30 C)” value with unlabelled GST-CDKACTH1 is “CDKACT-H1 is phosphorylated by GST-CDK2/Cyclin A and GST-CDK1-Cyclin B in a standard kinase assay”.
In the case of “recombinant active CDK2/Cyclin A (GST-CDK2/CIV complexed with His-Cyclin A)”, the “real-time fluorescence kinase assay (Cy3 fluorescence)” value in series [2] was “Both CDKACTH1 and CDKACTWWH1 report on CDK2/CyclinA activity, however CDKACTWWH1 yields greater changes in fluorescence enhancement”; in series [1] it was “Both CDKACTH1 and CDKACTWWH1 report on CDK2/CyclinA activity”. In series [3], the “real-time fluorescence kinase assay (Cy5 fluorescence)” value was “CDKACTWWH1, reports on CDK2/CyclinA activity, through significant changes in fluorescence enhancement”. Further, the “competition in the fluorescence kinase assay (phosphorylation of CDKACTH1-Cy3)” value in the series with histone H1 is “histone and unlabelled sensor prevented full phosphorylation of CDKACTH1”; in the series with unlabelled GST-CDKACTH1 it was “histone and unlabelled sensor prevented full phosphorylation of CDKACTH1”. For the same substance, the “radioactive kinase assay (phosphorylation, 30 min at 30 C)” value with unlabelled GST-CDKACTH1 was “CDKACT-H1 is phosphorylated by GST-CDK2/Cyclin A and GST-CDK1-Cyclin B in a standard kinase assay”.
